Assay results reported in PMC3436577 (The Journal of Biological Chemistry, 2012).

B1: eIF5 (natural protein)
chain: MSINICRDNHDPFYRYKMPPIQAKVEGRGNGIKTAVLNVADISHALNRPAPYIVKYFGFELGAQTSISVDKDRYLVNGVHEPAKLQDVLDGFINKFVLCGSCKNPETEIIITKDNDLVRDCKACGKRTPMDLRHKLSSFILKNPPDSVSGSKKKKKAATASANVRGGGLSISDIAQGKSQNAPSDGTGSSTPQHHDEDEDELSRQIKAAASTLEDIEVKDDEWAVDMSEEAIRARAKELEVNSELTQLDEYGEWILEQAGEDKENLPSDVELYKKAAELDVLNDPKIGCVLAQCLFDEDIVNEIAEHNAFFTKILVTPEYEKNFMGGIERFLGLEHKDLIPLLPKILVQLYNNDIISEEEIMRFGTKSSKKFVPKEVSKKVRRAAKPFITWLETAESDDDEEDDE
B2: c/Nip1-NTD (1–270) Box12-SPW (domain or fragment)
chain: MSRFFSSNYEYDVASSSSEEDLLSSSEEDLLSSSSSESELDQESDDSFFNESESESEADVDSDDSDAKPYGPDWFKKSEFRKQGGGSNKFLKSSNYDSSDEESDEEDGKKVVSSAPEWLLDEMQDVYNKISQAENSDDWLTISNEFDLISRLLVRAQQQNWGTPNIFIKVVAQVEDAVNNTQQADLKNKAVARAYNTTKQRVKKVSRENEDSMAKFRNDPESFDKEPTADLDISANGFTISSSQGNDQAVQEDFFTRLQTIIDSRGKKTV
modifications: 35S-labeled

Columns and labels:
Test in all cases: pull-down
c/Nip1-His Box15-2 = c/Nip1-His Box15-2 (S. cerevisiae, UniProt P32497 1-812, I142V | E145W | F146T | D147L | I149R)
c/Nip1-His Box12-WWPW = c/Nip1-His Box12-WWPW (S. cerevisiae, UniProt P32497 1-812, V111W | V112W | K116P | K118W)
[1] = target: c/Nip1-His GAP85 (Δ60–144) (S. cerevisiae, UniProt P32497 1-812, Δ60–144)
GST-eIF1 = GST-eIF1 (S. cerevisiae, UniProt P32911 1-108)
Sequence of GST-eIF1 (P32911 whole entry): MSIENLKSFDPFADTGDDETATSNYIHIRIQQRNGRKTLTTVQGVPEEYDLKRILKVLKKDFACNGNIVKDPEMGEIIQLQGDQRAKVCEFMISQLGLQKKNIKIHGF

| Binder | reduction of eIF5 associated in vivo, relative to WT c/Nip1-His (c/Nip1-His Box15-2) | reduction of eIF5 associated in vivo, relative to WT c/Nip1-His (c/Nip1-His Box12-WWPW) | reduction of eIF5 associated in vivo, relative to WT c/Nip1-His [1] | fold increase in binding relative to the WT c/Nip1-NTD (GST-eIF1) |
| --- | --- | --- | --- | --- |
| B1 | > 60% | ~30% | > 60% |  |
| B2 |  |  |  | ~2 fold |
